Assay results: FireProtDB (doi:10.1002/prot.340090203)
Values joined by “and” are separate entries in the source; they are usually repeats but may differ in a detail not shown here. Equal values may be shown once.

B1: Tryptophan synthase alpha chain, P0A877 (parent)
chain: MERYESLFAQLKERKEGAFVPFVTLGDPGIEQSLKIIDTLIEAGADALELGIPFSDPLADGPTIQNATLRAFAAGVTPAQCFEMLALIRQKHPTIPIGLLMYANLVFNKGIDEFYAQCEKVGVDSVLVADVPVEESAPFRQAALRHNVAPIFICPPNADDDLLRQIASYGRGYTYLLSRAGVTGAENRAALPLNHLVAKLKEYNAAPPLQGFGISAPDQVKAAIDAGAAGAISGSAIVKIIEQHINEPEKMLAALKVFVQPMKAATRS

Variants of: B1
Conditions: Escherichia coli (strain K12), reversible: yes, structure 1WQ5, whole UniProt chain shown
[1] = pH 9, 54.1 °C, Thermal, DSC, Sodium tetraborate 1 mM, EDTA 1 mM
[2] = pH 9, Thermal, DSC, Sodium tetraborate 1 mM
[3] = pH 7, 25 °C, GdnHCl, CD, Potassium phosphate 10 mM
[4] = pH 7, 25 °C, GdnHCl, CD, Potassium phosphate 10 mM, transition: 3

Row | Variant | ddG of mutation (higher = less stable) [1] [kcal/mol] | heat capacity change of unfolding [1] [kcal/mol/K] | Tm [2] [°C] | change of melting temperature, mutant - wild type (higher = more stable) [2] [°C] | heat capacity change of unfolding [2] [kcal/mol/K] | unfolding enthalpy (calorimetric) [2] [kcal/mol] | ddG of mutation (higher = less stable) [3] [kcal/mol] | unfolding free energy [3] [kcal/mol] | ddG of mutation (higher = less stable) [4] [kcal/mol] | unfolding free energy [4]
1 | MERYESLFAQLKERKEGAFVPFVTLGDPGIEQSLKIIDTLIEAGADALELGIPFSDALADGPTIQNATLRAFAAGVTPAQCFEMLALIRQKHPTIPIGLLMYANLVFNKGIDEFYAQCEKVGVDSVLVADVPVEESAPFRQAALRHNVAPIFICPPNADDDLLRQIASYGRGYTYLLSRAGVTGAENRAALPLNHLVAKLKEYNAAPPLQGFGISAPDQVKAAIDAGAAGAISGSAIVKIIEQHINEPEKMLAALKVFVQPMKAATRS [P57A] | 0.04 | 4.7 | 54 | -0.1 | 4.7 | 121 | – | – | – | –
2 | MERYESLFAQLKERKEGAFVPFVTLGDPGIEQSLKIIDTLIEAGADALELGIPFSDPLADGPTIQNATLRAFAAGVTPAQCFEMLALIRQKHPTIPIGLLMYANLVFNKGIDEFYAQCEKVGVDSVLVADVPVEESAPFRQAALRHNVAPIFICPPNADDDLLRQIASYGRGYTYLLSRAGVTGAENRAALPLNHLVAKLKEYNAAAPLQGFGISAPDQVKAAIDAGAAGAISGSAIVKIIEQHINEPEKMLAALKVFVQPMKAATRS [P207A] | – | – | 47.4 | -6.7 | 4.9 | 95 | 1.8 | 7 | 2.2 | 2.4 kcal/mol
3 | MERYESLFAQLKERKEGAFVPFVTLGDAGIEQSLKIIDTLIEAGADALELGIPFSDPLADGPTIQNATLRAFAAGVTPAQCFEMLALIRQKHPTIPIGLLMYANLVFNKGIDEFYAQCEKVGVDSVLVADVPVEESAPFRQAALRHNVAPIFICPPNADDDLLRQIASYGRGYTYLLSRAGVTGAENRAALPLNHLVAKLKEYNAAPPLQGFGISAPDQVKAAIDAGAAGAISGSAIVKIIEQHINEPEKMLAALKVFVQPMKAATRS [P28A] | – | – | – | – | – | – | 2.5 | 6.3 | – | 2.2 kcal/mol and 4.1 kcal/mol
4 | MERYESLFAQLKERKEGAFVPFVTLGDGGIEQSLKIIDTLIEAGADALELGIPFSDPLADGPTIQNATLRAFAAGVTPAQCFEMLALIRQKHPTIPIGLLMYANLVFNKGIDEFYAQCEKVGVDSVLVADVPVEESAPFRQAALRHNVAPIFICPPNADDDLLRQIASYGRGYTYLLSRAGVTGAENRAALPLNHLVAKLKEYNAAPPLQGFGISAPDQVKAAIDAGAAGAISGSAIVKIIEQHINEPEKMLAALKVFVQPMKAATRS [P28G] | – | – | – | – | – | – | 1.6 | 7.2 | – | 2.3 kcal/mol and 4.9 kcal/mol
5 | MERYESLFAQLKERKEGAFVPFVTLGDPGIEQSLKIIDTLIEAGADALELGIPFSDPLADGPTIQNATLRAFAAGVTPAQCFEMLALIRQKHPTIPIGLLMYANLVFNKGIDEFYAQCEKVGVDSVLVADVGVEESAPFRQAALRHNVAPIFICPPNADDDLLRQIASYGRGYTYLLSRAGVTGAENRAALPLNHLVAKLKEYNAAPPLQGFGISAPDQVKAAIDAGAAGAISGSAIVKIIEQHINEPEKMLAALKVFVQPMKAATRS [P132G] | 0.78 | 5.1 | 51.8 | -2.3 | 5.1 | 117 | 0.6 | 8.2 | – | 3.6 kcal/mol and 4.6 kcal/mol
6 | MERYESLFAQLKERKEGAFVPFVTLGDPGIEQSLKIIDTLIEAGADALELGIPFSDPLADGPTIQNATLRAFAAGVTPAQCFEMLALIRQKHPTIPIGLLMYANLVFNKGIDEFYAQCEKVGVDSVLVADVAVEESAPFRQAALRHNVAPIFICPPNADDDLLRQIASYGRGYTYLLSRAGVTGAENRAALPLNHLVAKLKEYNAAPPLQGFGISAPDQVKAAIDAGAAGAISGSAIVKIIEQHINEPEKMLAALKVFVQPMKAATRS [P132A] | 0.92 | 4.8 | 51.5 | -2.6 | 4.8 | 121 | – | – | – | –
7 | MERYESLFAQLKERKEGAFVPFVTLGDPGIEQSLKIIDTLIEAGADALELGIPFSDPLADGPTIQNATLRAFAAGVTPAQCFEMLALIRQKHPTIAIGLLMYANLVFNKGIDEFYAQCEKVGVDSVLVADVPVEESAPFRQAALRHNVAPIFICPPNADDDLLRQIASYGRGYTYLLSRAGVTGAENRAALPLNHLVAKLKEYNAAPPLQGFGISAPDQVKAAIDAGAAGAISGSAIVKIIEQHINEPEKMLAALKVFVQPMKAATRS [P96A] | 2 | 3.6 | 47.8 | -6.3 | 3.6 | 113 | – | – | – | –
8 | MERYESLFAQLKERKEGAFVPFVTLGDPGIEQSLKIIDTLIEAGADALELGIPFSDPLADGATIQNATLRAFAAGVTPAQCFEMLALIRQKHPTIPIGLLMYANLVFNKGIDEFYAQCEKVGVDSVLVADVPVEESAPFRQAALRHNVAPIFICPPNADDDLLRQIASYGRGYTYLLSRAGVTGAENRAALPLNHLVAKLKEYNAAPPLQGFGISAPDQVKAAIDAGAAGAISGSAIVKIIEQHINEPEKMLAALKVFVQPMKAATRS [P62A] | 0.52 | 4.9 | – | – | – | – | – | – | – | –
